What was measured:
[1] = test system: K5 ZFP (VSSR-DGNV-VSSR-VDYK-Gal4AD) (Artificial Sequence); assay: EMSA; conditions: reference for the mutant comparison; binding of parent K5 implied by gel shift; exact probe not given, degenerate expected site
[2] = test system: K5 mutant ZFP (VSSR-DGAV-VSSR-VDYK-Gal4AD) N80A (Asn DNA-contacting residue of finger 2, DGNV to DGAV; position counted in SEQ 225) (Artificial Sequence); assay: EMSA; conditions: at least 10-fold decrease in DNA-binding affinity for expected site; no ketoconazole resistance in yeast
Chain of K5 mutant ZFP (VSSR-DGAV-VSSR-VDYK-Gal4AD) N80A (Asn DNA-contacting residue of finger 2, DGNV to DGAV; position counted in SEQ 225) (Artificial Sequence) (chain, as listed by the source N80A): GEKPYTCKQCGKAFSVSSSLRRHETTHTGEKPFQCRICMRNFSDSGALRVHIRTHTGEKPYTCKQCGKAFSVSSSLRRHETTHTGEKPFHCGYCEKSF

Chain of K5 ZFP (VSSR-DGNV-VSSR-VDYK-Gal4AD) (Artificial Sequence) (chain, as listed by the source): as the sequence (chain, as listed by the source N80A) above, with A47N counted along it

In the case of “KATGTDAACGTD (double strand) [K5 expected target site]”, the binding signal [1] is reported as 1 and the binding signal [2] is reported as < 0.1 fold of K5.
